Source: patent US20090188010A1

Assays:
Experiment in all cases: cell-based or functional assay
[1] = target: Bovine chymotrypsin (bovine) (UniProt P00766)
[2] = target: NaPI-insensitive chymotrypsin from H. punctigera (HpCh5), native enzyme from the larval gut (Helicoverpa punctigera)
[3] = target: chymotrypsins in unfractionated gut extracts from H. punctigera larvae

Sequence of lima bean trypsin inhibitor (Sigma) (P01056 whole entry): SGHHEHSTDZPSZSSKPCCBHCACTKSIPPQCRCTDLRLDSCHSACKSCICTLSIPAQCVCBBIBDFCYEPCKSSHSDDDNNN
Sequence of soybean Bowman Birk inhibitor (P01055 40-110 limits assumed): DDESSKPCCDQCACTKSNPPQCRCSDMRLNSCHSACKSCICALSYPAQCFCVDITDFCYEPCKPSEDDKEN
Sequence of NaPI-insensitive chymotrypsin from H. punctigera (HpCh5), native enzyme from the larval gut (Helicoverpa punctigera) (chain, as listed by the source limits assumed): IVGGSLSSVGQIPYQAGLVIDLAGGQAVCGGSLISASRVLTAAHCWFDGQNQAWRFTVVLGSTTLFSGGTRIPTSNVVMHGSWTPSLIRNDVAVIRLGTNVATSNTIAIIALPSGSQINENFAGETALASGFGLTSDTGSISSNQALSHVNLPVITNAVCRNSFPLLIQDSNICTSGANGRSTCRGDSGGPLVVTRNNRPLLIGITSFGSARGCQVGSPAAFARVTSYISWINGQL
Sequence of soybean trypsin inhibitor (P01070 25-205): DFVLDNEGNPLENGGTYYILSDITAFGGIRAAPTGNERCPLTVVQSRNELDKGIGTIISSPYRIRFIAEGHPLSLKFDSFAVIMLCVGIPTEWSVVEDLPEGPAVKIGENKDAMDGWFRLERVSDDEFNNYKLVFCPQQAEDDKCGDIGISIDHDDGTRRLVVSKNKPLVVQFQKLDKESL

| Substance | % Inhibition of chymotrypsin activity at the maximum concentration tested (5 µM) [1] [%] | IC50 of inhibition of chymotrypsin activity [1] [nM] | % Inhibition of chymotrypsin activity at the maximum concentration tested (10 µM) [2] [%] | IC50 of inhibition of chymotrypsin activity [2] [nM] | degree of inhibition of gut chymotrypsin activity of control insects, 80 nM C1 (FIG. 2F) [3] [%] | % Inhibition of chymotrypsin activity at the maximum concentration tested (>20 µM) [1] [%] | % Inhibition of chymotrypsin activity at the maximum concentration tested (>20 µM) [2] [%] |
| --- | --- | --- | --- | --- | --- | --- | --- |
| soybean Bowman Birk inhibitor (from UniProt P01055 40-110) | 100 | 60 | 100 | 240 |  |  |  |
| C1 monomer, chymotrypsin inhibitor from the N. alata proteinase inhibitor precursor, HPLC purified |  |  |  |  | 75 |  |  |
| soybean trypsin inhibitor (from UniProt P01070 25-205) |  | 13000 |  | 33000 |  | 94 | 82 |
| lima bean trypsin inhibitor (Sigma) (from UniProt P01056 1-83) | 100 | 200 |  | 3000 |  |  | 89 |
